This series has as its system Escherichia coli TOP10. In words: shrunken log2 fold change of peptide-encoding DNA abundance (4.5 h post-induction vs induction); higher = less antimicrobial activity (less host growth inhibition). The conditions noted are these: time post-induction: 4.5 h; library: site-saturation at positions 5, 18, 19, 20.
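Also: peptides expressed intracellularly from a pBAD plasmid library in pooled LB shake-flask culture, induced with 0.3% L-arabinose, DNA abundance read by NGS, three biological replicates, DESeq2 with apeglm shrinkage.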

Regarding RRIRKRPPRLPRPRPRPGRCPRP, the “shrunken log2 fold change” value came to 0.586.

As to RRIRPRPPRLPRPRPRPVQCPRP, the “shrunken log2 fold change” value was -0.0846.

For the sequence RRIRPRPPRLPRPRPRPNMCPRP, the “shrunken log2 fold change” value was -0.0958.

As to RRIRYRPPRLPRPRPRPHQDPRP, the “shrunken log2 fold change” value is -0.0582.

On to RRIRFRPPRLPRPRPRPFMKPRP, for which the “shrunken log2 fold change” value worked out at 1.71.

Take RRIRYRPPRLPRPRPRPMLNPRP: the “shrunken log2 fold change” value was -0.892.

On to RRIRHRPPRLPRPRPRPAYNPRP, for which the “shrunken log2 fold change” value is -1.04.

Turning to RRIRHRPPRLPRPRPRPMDTPRP, the “shrunken log2 fold change” value stood at 0.03.

As to RRIRGRPPRLPRPRPRPSWIPRP, the “shrunken log2 fold change” value is -0.0436.

As to RRIRRRPPRLPRPRPRPSPHPRP, the “shrunken log2 fold change” value amounted to 0.334.

Take RRIRYRPPRLPRPRPRPTYMPRP: the “shrunken log2 fold change” value was -1.

Consider RRIRVRPPRLPRPRPRPFIAPRP, for which the “shrunken log2 fold change” value is -0.448.

RRIRMRPPRLPRPRPRPVLLPRP: the “shrunken log2 fold change” value amounted to 0.291.

Regarding RRIRVRPPRLPRPRPRPREGPRP, the “shrunken log2 fold change” value is 0.307.

Take RRIRNRPPRLPRPRPRPDEKPRP: the “shrunken log2 fold change” value is -0.133.

With RRIRTRPPRLPRPRPRPHFTPRP, the “shrunken log2 fold change” value is -0.149.

Consider RRIRYRPPRLPRPRPRPDMTPRP, for which the “shrunken log2 fold change” value was -0.149.

Consider RRIRIRPPRLPRPRPRPTTTPRP, for which the “shrunken log2 fold change” value is -0.00987.

Take RRIRRRPPRLPRPRPRPKVCPRP: the “shrunken log2 fold change” value stood at 0.0559.

In the case of RRIRDRPPRLPRPRPRPRSRPRP, the “shrunken log2 fold change” value was found to be 0.00639.

As to RRIRNRPPRLPRPRPRPIYRPRP, the “shrunken log2 fold change” value is -0.356.

For the sequence RRIRDRPPRLPRPRPRPITAPRP, the “shrunken log2 fold change” value was -0.283.

As for RRIRARPPRLPRPRPRPDHGPRP, the “shrunken log2 fold change” value is -0.144.

In the case of RRIRKRPPRLPRPRPRPSDPPRP, the “shrunken log2 fold change” value was 0.0131.

For the sequence RRIRHRPPRLPRPRPRPVNPPRP, the “shrunken log2 fold change” value was -0.307.

For RRIRTRPPRLPRPRPRPNIRPRP, the “shrunken log2 fold change” value is -0.0979.

For the sequence RRIRYRPPRLPRPRPRPDSRPRP, the “shrunken log2 fold change” value was -0.0156.

As to RRIRPRPPRLPRPRPRPVPTPRP, the “shrunken log2 fold change” value is 0.424.

Regarding RRIRERPPRLPRPRPRPIQIPRP, the “shrunken log2 fold change” value is -0.103.

RRIRKRPPRLPRPRPRPRMFPRP: the “shrunken log2 fold change” value turned out to be 0.112.

On to RRIRSRPPRLPRPRPRPQHWPRP, for which the “shrunken log2 fold change” value was found to be 0.015.

On to RRIRIRPPRLPRPRPRPYLAPRP, for which the “shrunken log2 fold change” value is -0.941.

On to RRIRLRPPRLPRPRPRPKSHPRP, for which the “shrunken log2 fold change” value is -0.261.

With RRIRFRPPRLPRPRPRPTVWPRP, the “shrunken log2 fold change” value came to 0.19.

Consider RRIRLRPPRLPRPRPRPMTTPRP, for which the “shrunken log2 fold change” value was 0.0748.

Turning to RRIRYRPPRLPRPRPRPSQIPRP, the “shrunken log2 fold change” value is -0.766.

On to RRIRWRPPRLPRPRPRPGQSPRP, for which the “shrunken log2 fold change” value was determined as 0.572.

For RRIRKRPPRLPRPRPRPLKRPRP, the “shrunken log2 fold change” value amounted to 0.321.

Take RRIRGRPPRLPRPRPRPSQMPRP: the “shrunken log2 fold change” value came out at 0.0878.

Turning to RRIRHRPPRLPRPRPRPVNDPRP, the “shrunken log2 fold change” value was -0.0193.

Take RRIRSRPPRLPRPRPRPRCNPRP: the “shrunken log2 fold change” value is 0.124.

On to RRIRWRPPRLPRPRPRPRFKPRP, for which the “shrunken log2 fold change” value stood at 0.0187.

Consider RRIRFRPPRLPRPRPRPPDPPRP, for which the “shrunken log2 fold change” value is 0.571.

Consider RRIRDRPPRLPRPRPRPAQPPRP, for which the “shrunken log2 fold change” value was 0.278.

Consider RRIRCRPPRLPRPRPRPWRYPRP, for which the “shrunken log2 fold change” value amounted to 0.0621.

With RRIRERPPRLPRPRPRPWHIPRP, the “shrunken log2 fold change” value is -0.169.

For the sequence RRIRLRPPRLPRPRPRPDCDPRP, the “shrunken log2 fold change” value is 0.183.

On to RRIRFRPPRLPRPRPRPSFTPRP, for which the “shrunken log2 fold change” value stood at 0.587.

Turning to RRIRCRPPRLPRPRPRPREGPRP, the “shrunken log2 fold change” value stood at 1.09.

With RRIRKRPPRLPRPRPRPMRTPRP, the “shrunken log2 fold change” value was 3.66.

Turning to RRIRGRPPRLPRPRPRPIDWPRP, the “shrunken log2 fold change” value was 0.559.

For RRIRQRPPRLPRPRPRPVPPPRP, the “shrunken log2 fold change” value was 0.536.

As to RRIRFRPPRLPRPRPRPRVFPRP, the “shrunken log2 fold change” value is 0.232.

Regarding RRIRIRPPRLPRPRPRPARFPRP, the “shrunken log2 fold change” value is -0.0256.

Take RRIRGRPPRLPRPRPRPRNMPRP: the “shrunken log2 fold change” value came out at 0.0712.

Regarding RRIRIRPPRLPRPRPRPHPPPRP, the “shrunken log2 fold change” value is -0.0108.

In the case of RRIRSRPPRLPRPRPRPMNQPRP, the “shrunken log2 fold change” value was -0.0276.

With RRIRDRPPRLPRPRPRPESTPRP, the “shrunken log2 fold change” value is -0.0182.

As for RRIRIRPPRLPRPRPRPLSVPRP, the “shrunken log2 fold change” value was -0.254.

Take RRIRHRPPRLPRPRPRPYMSPRP: the “shrunken log2 fold change” value was -0.236.

Take RRIRDRPPRLPRPRPRPLRTPRP: the “shrunken log2 fold change” value came out at 0.215.

In the case of RRIRNRPPRLPRPRPRPHKCPRP, the “shrunken log2 fold change” value is -0.0755.

Turning to RRIRCRPPRLPRPRPRPMFKPRP, the “shrunken log2 fold change” value is -0.536.

For the sequence RRIRARPPRLPRPRPRPPVLPRP, the “shrunken log2 fold change” value worked out at 0.214.

RRIRERPPRLPRPRPRPENDPRP: the “shrunken log2 fold change” value is -0.0725.

RRIRGRPPRLPRPRPRPSCMPRP: the “shrunken log2 fold change” value was 0.336.

On to RRIRQRPPRLPRPRPRPVWGPRP, for which the “shrunken log2 fold change” value is 0.225.

Consider RRIRVRPPRLPRPRPRPIFWPRP, for which the “shrunken log2 fold change” value came to 0.00106.

Take RRIRLRPPRLPRPRPRPVDVPRP: the “shrunken log2 fold change” value amounted to 0.0939.

Consider RRIRSRPPRLPRPRPRPCRPPRP, for which the “shrunken log2 fold change” value is -0.584.

With RRIRIRPPRLPRPRPRPIIVPRP, the “shrunken log2 fold change” value is -0.666.

With RRIRHRPPRLPRPRPRPSDAPRP, the “shrunken log2 fold change” value was -0.293.

As for RRIRGRPPRLPRPRPRPARSPRP, the “shrunken log2 fold change” value stood at 0.686.

Consider RRIRLRPPRLPRPRPRPYYFPRP, for which the “shrunken log2 fold change” value was -0.767.

As to RRIRDRPPRLPRPRPRPCEFPRP, the “shrunken log2 fold change” value came out at 0.013.

For the sequence RRIRLRPPRLPRPRPRPVPNPRP, the “shrunken log2 fold change” value came out at 0.0119.

Regarding RRIRSRPPRLPRPRPRPPYIPRP, the “shrunken log2 fold change” value is -0.296.

As for RRIRGRPPRLPRPRPRPCFPPRP, the “shrunken log2 fold change” value is 0.309.

RRIRKRPPRLPRPRPRPRFFPRP: the “shrunken log2 fold change” value is 0.282.

In the case of RRIRVRPPRLPRPRPRPAQEPRP, the “shrunken log2 fold change” value was 0.0593.

Regarding RRIRARPPRLPRPRPRPRNAPRP, the “shrunken log2 fold change” value came out at 0.485.

On to RRIRKRPPRLPRPRPRPPSCPRP, for which the “shrunken log2 fold change” value was found to be 1.71.

On to RRIRGRPPRLPRPRPRPYFVPRP, for which the “shrunken log2 fold change” value was found to be 0.0122.

As for RRIRDRPPRLPRPRPRPSAEPRP, the “shrunken log2 fold change” value is 0.162.

As to RRIRKRPPRLPRPRPRPSVKPRP, the “shrunken log2 fold change” value was -0.358.

RRIRIRPPRLPRPRPRPKWCPRP: the “shrunken log2 fold change” value is -0.317.

With RRIRRRPPRLPRPRPRPYAQPRP, the “shrunken log2 fold change” value was -0.252.

In the case of RRIRCRPPRLPRPRPRPTATPRP, the “shrunken log2 fold change” value was determined as 0.299.

Turning to RRIRGRPPRLPRPRPRPEQYPRP, the “shrunken log2 fold change” value is -0.183.

RRIRMRPPRLPRPRPRPRENPRP: the “shrunken log2 fold change” value was determined as 0.265.

On to RRIRPRPPRLPRPRPRPIACPRP, for which the “shrunken log2 fold change” value came to 0.0852.
